Measurements taken from publication PMC9482650, “Quantitative fragmentomics allow affinity mapping of interactomes” (Nature Communications, 2022).

Columns and labels:
Assay in all cases: holdup assay
Set-up in all cases: key: below the threshold = too weak to quantify, mostly under pKd 3.1 to 4
Details in all cases: plain residues with an end cap or a label only (N-terminal biotin on a linker: ttds)
APBA1_2, Q02410 = biological target: T1, APBA1_2, Q02410
T1 sequence (Q02410 742-832, limits assumed, looked up): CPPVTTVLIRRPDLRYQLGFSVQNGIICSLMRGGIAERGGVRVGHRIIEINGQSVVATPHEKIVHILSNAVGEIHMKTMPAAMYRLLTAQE

DFNB31_3, Q9P202 = biological target: T2, DFNB31_3, Q9P202
T2 sequence (Q9P202 811-907, limits assumed, looked up): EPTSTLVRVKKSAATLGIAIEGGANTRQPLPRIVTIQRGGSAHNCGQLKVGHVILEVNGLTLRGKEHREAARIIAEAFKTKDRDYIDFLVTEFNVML

DLG2_3, Q15700 = biological target: DLG2_3, Q15700
FRMPD1, Q5SYB0 = biological target: T3, FRMPD1, Q5SYB0
T3 sequence (Q5SYB0 52-145, limits assumed, looked up): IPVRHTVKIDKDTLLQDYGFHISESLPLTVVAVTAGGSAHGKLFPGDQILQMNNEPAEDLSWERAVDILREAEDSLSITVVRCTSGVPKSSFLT

FRMPD2_1, Q68DX3 = biological target: FRMPD2_1, Q68DX3
FRMPD3, Q5JV73 = biological target: FRMPD3, Q5JV73
FRMPD4, Q14CM0 = biological target: FRMPD4, Q14CM0
GRIP1_4, Q9Y3R0 = biological target: T4, GRIP1_4, Q9Y3R0
T4 sequence (Q9Y3R0 467-571, limits assumed, looked up): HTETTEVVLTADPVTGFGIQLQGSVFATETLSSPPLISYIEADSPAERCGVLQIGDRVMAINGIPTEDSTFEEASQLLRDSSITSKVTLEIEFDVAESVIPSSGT

GRIP1_5, Q9Y3R0 = biological target: T5, GRIP1_5, Q9Y3R0
T5 sequence (Q9Y3R0 568-668, limits assumed, looked up): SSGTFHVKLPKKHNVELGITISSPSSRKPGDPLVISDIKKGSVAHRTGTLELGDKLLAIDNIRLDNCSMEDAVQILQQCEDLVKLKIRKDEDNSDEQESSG

Inadl_1, Q8NI35 = biological target: Inadl_1, Q8NI35
Inadl_10, Q8NI35 = biological target: Inadl_10, Q8NI35
Inadl_4, Q8NI35 = biological target: Inadl_4, Q8NI35
Inadl_6, Q8NI35 = biological target: Inadl_6, Q8NI35
LNX1_3, Q8TBB1 = biological target: LNX1_3, Q8TBB1
LNX2_2, Q8N448 = biological target: T6, LNX2_2, Q8N448
T6 sequence (Q8N448 334-432, limits assumed, looked up): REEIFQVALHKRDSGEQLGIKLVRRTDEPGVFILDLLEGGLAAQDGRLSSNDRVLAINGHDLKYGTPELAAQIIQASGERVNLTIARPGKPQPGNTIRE

MAGI2_3, Q86UL8 = biological target: MAGI2_3, Q86UL8
MAGI3_2, Q5TCQ9 = biological target: MAGI3_2, Q5TCQ9
MPDZ_5, O75970 = biological target: T7, MPDZ_5, O75970
T7 sequence (O75970 695-796, limits assumed, looked up): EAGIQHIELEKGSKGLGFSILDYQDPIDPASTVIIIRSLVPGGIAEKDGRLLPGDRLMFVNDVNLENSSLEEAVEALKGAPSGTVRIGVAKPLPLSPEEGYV

NHERF4_2, Q86UT5 = biological target: NHERF4_2, Q86UT5
NOS1, P29475 = biological target: NOS1, P29475
PARD3B_1, Q8TEW8 = biological target: T8, PARD3B_1, Q8TEW8
T8 sequence (Q8TEW8 196-299, limits assumed, looked up): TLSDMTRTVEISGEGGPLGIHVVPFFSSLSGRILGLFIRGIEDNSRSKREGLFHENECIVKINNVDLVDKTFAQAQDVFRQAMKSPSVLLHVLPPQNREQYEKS

PDLIM1, O00151 = biological target: PDLIM1, O00151
PDZD7_3, Q9H5P4 = biological target: T9, PDZD7_3, Q9H5P4
T9 sequence (Q9H5P4 857-944, limits assumed, looked up): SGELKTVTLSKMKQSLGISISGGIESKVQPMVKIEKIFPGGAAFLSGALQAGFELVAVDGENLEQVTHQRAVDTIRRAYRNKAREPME

PDZRN4_1, Q6ZMN7 = biological target: PDZRN4_1, Q6ZMN7
PTPN3, P26045 = biological target: PTPN3, P26045
SHANK1, Q9Y566 = biological target: T10, SHANK1, Q9Y566
T10 sequence (Q9Y566 658-767, limits assumed, looked up): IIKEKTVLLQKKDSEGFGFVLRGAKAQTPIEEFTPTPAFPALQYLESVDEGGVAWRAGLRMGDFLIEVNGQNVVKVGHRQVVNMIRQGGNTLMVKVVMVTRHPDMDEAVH

SIPA1L2, Q9P2F8 = biological target: T11, SIPA1L2, Q9P2F8
T11 sequence (Q9P2F8 945-1036, limits assumed, looked up): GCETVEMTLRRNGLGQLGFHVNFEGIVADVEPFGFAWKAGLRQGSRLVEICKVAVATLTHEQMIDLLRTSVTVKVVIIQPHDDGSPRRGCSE

Sequence of PDZRN4_1, Q6ZMN7 (Q6ZMN7 213-318): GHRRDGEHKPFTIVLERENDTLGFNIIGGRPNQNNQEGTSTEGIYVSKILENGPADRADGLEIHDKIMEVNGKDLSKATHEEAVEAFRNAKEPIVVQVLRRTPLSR
Sequence of MAGI3_2, Q5TCQ9 (Q5TCQ9 398-503): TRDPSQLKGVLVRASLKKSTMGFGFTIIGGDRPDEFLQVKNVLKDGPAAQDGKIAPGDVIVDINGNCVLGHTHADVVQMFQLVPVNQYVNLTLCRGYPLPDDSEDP
Sequence of Inadl_4, Q8NI35 (Q8NI35 547-651): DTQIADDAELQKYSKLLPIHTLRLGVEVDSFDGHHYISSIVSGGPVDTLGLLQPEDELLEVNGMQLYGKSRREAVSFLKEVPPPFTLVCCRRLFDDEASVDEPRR
Sequence of LNX1_3, Q8TBB1 (Q8TBB1 500-596): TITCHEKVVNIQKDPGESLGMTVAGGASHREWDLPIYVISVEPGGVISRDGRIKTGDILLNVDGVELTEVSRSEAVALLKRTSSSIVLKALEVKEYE
Sequence of PTPN3, P26045 (P26045 505-587): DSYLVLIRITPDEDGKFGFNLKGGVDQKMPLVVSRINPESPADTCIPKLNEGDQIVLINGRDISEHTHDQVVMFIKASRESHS
Sequence of NOS1, P29475 (P29475 9-101): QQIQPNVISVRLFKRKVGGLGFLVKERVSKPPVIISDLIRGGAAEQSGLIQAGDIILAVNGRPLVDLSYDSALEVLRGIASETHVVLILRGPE
Sequence of MAGI2_3, Q86UL8 (Q86UL8 600-682): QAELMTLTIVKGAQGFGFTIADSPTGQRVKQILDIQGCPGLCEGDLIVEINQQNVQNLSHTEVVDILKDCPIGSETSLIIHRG
Sequence of FRMPD2_1, Q68DX3 (Q68DX3 770-861): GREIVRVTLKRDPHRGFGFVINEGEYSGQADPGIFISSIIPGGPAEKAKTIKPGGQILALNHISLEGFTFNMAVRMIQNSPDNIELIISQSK
Sequence of Inadl_10, Q8NI35 (Q8NI35 1673-1763): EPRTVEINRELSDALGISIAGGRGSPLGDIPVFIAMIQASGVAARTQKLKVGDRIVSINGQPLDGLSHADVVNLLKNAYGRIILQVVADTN
Sequence of FRMPD3, Q5JV73 (Q5JV73 12-100): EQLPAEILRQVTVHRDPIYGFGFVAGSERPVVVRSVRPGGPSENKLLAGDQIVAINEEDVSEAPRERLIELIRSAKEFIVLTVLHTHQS
Sequence of Inadl_1, Q8NI35 (Q8NI35 113-229): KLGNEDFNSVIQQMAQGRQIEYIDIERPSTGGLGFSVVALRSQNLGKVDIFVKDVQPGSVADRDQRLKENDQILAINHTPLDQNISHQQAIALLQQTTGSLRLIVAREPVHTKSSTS
Sequence of FRMPD4, Q14CM0 (Q14CM0 67-160): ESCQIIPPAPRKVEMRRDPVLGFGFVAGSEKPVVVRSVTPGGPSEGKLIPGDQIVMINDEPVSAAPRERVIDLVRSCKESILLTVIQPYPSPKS
Sequence of PDLIM1, O00151 (O00151 1-87): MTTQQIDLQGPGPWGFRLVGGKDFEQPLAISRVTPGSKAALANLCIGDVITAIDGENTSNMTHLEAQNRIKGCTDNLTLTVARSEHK
Sequence of Inadl_6, Q8NI35 (Q8NI35 1058-1167): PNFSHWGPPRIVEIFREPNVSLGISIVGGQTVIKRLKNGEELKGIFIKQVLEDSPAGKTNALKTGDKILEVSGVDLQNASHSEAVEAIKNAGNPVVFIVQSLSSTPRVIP
Sequence of NHERF4_2, Q86UT5 (Q86UT5 220-308): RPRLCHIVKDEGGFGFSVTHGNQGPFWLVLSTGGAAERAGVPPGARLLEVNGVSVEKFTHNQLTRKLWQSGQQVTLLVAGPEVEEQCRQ

## SSLQSLETSV [ATP2B4, P23634]
APBA1_2, Q02410
  pKd: 4.13
DFNB31_3, Q9P202
  pKd: below the threshold
DLG2_3, Q15700
  pKd: 4.88
FRMPD1, Q5SYB0
  pKd: below the threshold
FRMPD2_1, Q68DX3
  pKd: 4.17
FRMPD3, Q5JV73
  pKd: below the threshold
FRMPD4, Q14CM0
  pKd: below the threshold
GRIP1_4, Q9Y3R0
  pKd: below the threshold
GRIP1_5, Q9Y3R0
  pKd: below the threshold
Inadl_1, Q8NI35
  pKd: below the threshold
Inadl_10, Q8NI35
  pKd: below the threshold
Inadl_4, Q8NI35
  pKd: below the threshold
Inadl_6, Q8NI35
  pKd: below the threshold
LNX1_3, Q8TBB1
  pKd: 3.59
LNX2_2, Q8N448
  pKd: 4.01
MAGI2_3, Q86UL8
  pKd: 4.2
MAGI3_2, Q5TCQ9
  pKd: 4.79
MPDZ_5, O75970
  pKd: 3.58
NHERF4_2, Q86UT5
  pKd: below the threshold
NOS1, P29475
  pKd: 4.04
PARD3B_1, Q8TEW8
  pKd: below the threshold
PDLIM1, O00151
  pKd: 3.66
PDZD7_3, Q9H5P4
  pKd: 4.48
PDZRN4_1, Q6ZMN7
  pKd: 4.79
PTPN3, P26045
  pKd: 5.12
SHANK1, Q9Y566
  pKd: 3.94
SIPA1L2, Q9P2F8
  pKd: below the threshold

## RHTTSTETAV [HPV30-E6, P36809]
APBA1_2, Q02410
  pKd: 4.23
DFNB31_3, Q9P202
  pKd: below the threshold
DLG2_3, Q15700
  pKd: 4.79
FRMPD1, Q5SYB0
  pKd: below the threshold
FRMPD2_1, Q68DX3
  pKd: 4.14
FRMPD3, Q5JV73
  pKd: 3.76
FRMPD4, Q14CM0
  pKd: below the threshold
GRIP1_4, Q9Y3R0
  pKd: below the threshold
GRIP1_5, Q9Y3R0
  pKd: below the threshold
Inadl_1, Q8NI35
  pKd: below the threshold
Inadl_10, Q8NI35
  pKd: below the threshold
Inadl_4, Q8NI35
  pKd: below the threshold
Inadl_6, Q8NI35
  pKd: below the threshold
LNX1_3, Q8TBB1
  pKd: below the threshold
LNX2_2, Q8N448
  pKd: 3.77
MAGI2_3, Q86UL8
  pKd: 4.57
MAGI3_2, Q5TCQ9
  pKd: 5.36
MPDZ_5, O75970
  pKd: below the threshold
NHERF4_2, Q86UT5
  pKd: below the threshold
NOS1, P29475
  pKd: 4.63
PARD3B_1, Q8TEW8
  pKd: below the threshold
PDLIM1, O00151
  pKd: below the threshold
PDZD7_3, Q9H5P4
  pKd: 4.1
PDZRN4_1, Q6ZMN7
  pKd: 4.53
PTPN3, P26045
  pKd: 5.13
SHANK1, Q9Y566
  pKd: 3.73
SIPA1L2, Q9P2F8
  pKd: below the threshold

## KKYVDAETSL [SLC4A7, Q9Y6M7]
APBA1_2, Q02410
  pKd: 3.73
DFNB31_3, Q9P202
  pKd: below the threshold
DLG2_3, Q15700
  pKd: below the threshold
FRMPD1, Q5SYB0
  pKd: below the threshold
FRMPD2_1, Q68DX3
  pKd: below the threshold
FRMPD3, Q5JV73
  pKd: 3.58
FRMPD4, Q14CM0
  pKd: 4.4
GRIP1_4, Q9Y3R0
  pKd: below the threshold
GRIP1_5, Q9Y3R0
  pKd: 3.53
Inadl_1, Q8NI35
  pKd: 3.55
Inadl_10, Q8NI35
  pKd: below the threshold
Inadl_4, Q8NI35
  pKd: below the threshold
Inadl_6, Q8NI35
  pKd: 3.71
LNX1_3, Q8TBB1
  pKd: below the threshold
LNX2_2, Q8N448
  pKd: below the threshold
MAGI2_3, Q86UL8
  pKd: below the threshold
MAGI3_2, Q5TCQ9
  pKd: below the threshold
MPDZ_5, O75970
  pKd: below the threshold
NHERF4_2, Q86UT5
  pKd: below the threshold
NOS1, P29475
  pKd: 3.58
PARD3B_1, Q8TEW8
  pKd: 3.65
PDLIM1, O00151
  pKd: below the threshold
PDZD7_3, Q9H5P4
  pKd: 3.77
PDZRN4_1, Q6ZMN7
  pKd: 4.8
PTPN3, P26045
  pKd: 5.04
SHANK1, Q9Y566
  pKd: 4.67
SIPA1L2, Q9P2F8
  pKd: below the threshold

## RLQRRRETQV [HPV18-E6, P06463]
APBA1_2, Q02410
  pKd: below the threshold
DFNB31_3, Q9P202
  pKd: below the threshold
DLG2_3, Q15700
  pKd: 5.06
FRMPD1, Q5SYB0
  pKd: below the threshold
FRMPD2_1, Q68DX3
  pKd: 4.1
FRMPD3, Q5JV73
  pKd: below the threshold
FRMPD4, Q14CM0
  pKd: below the threshold
GRIP1_4, Q9Y3R0
  pKd: below the threshold
GRIP1_5, Q9Y3R0
  pKd: below the threshold
Inadl_1, Q8NI35
  pKd: below the threshold
Inadl_10, Q8NI35
  pKd: below the threshold
Inadl_4, Q8NI35
  pKd: below the threshold
Inadl_6, Q8NI35
  pKd: below the threshold
LNX1_3, Q8TBB1
  pKd: below the threshold
LNX2_2, Q8N448
  pKd: 3.17
MAGI2_3, Q86UL8
  pKd: 4.15
MAGI3_2, Q5TCQ9
  pKd: 5.56
MPDZ_5, O75970
  pKd: below the threshold
NHERF4_2, Q86UT5
  pKd: below the threshold
NOS1, P29475
  pKd: 3.71
PARD3B_1, Q8TEW8
  pKd: below the threshold
PDLIM1, O00151
  pKd: below the threshold
PDZD7_3, Q9H5P4
  pKd: 3.98
PDZRN4_1, Q6ZMN7
  pKd: 4.48
PTPN3, P26045
  pKd: 4.49
SHANK1, Q9Y566
  pKd: below the threshold
SIPA1L2, Q9P2F8
  pKd: below the threshold
